One may read the stoichiometry N as a count of units in the complex or per binding partner. In general, Kd refers to the free concentration of one partner at which half of the binding sites on the other are occupied at equilibrium, for simple one-to-one binding. A low value points to tighter binding.

B1: Escherichia coli polynucleotide phosphorylase core (PNPase ΔKHΔS1, lacking the C-terminal S1 and KH domains) (domain or fragment, E. coli)
chain: MLNPIVRKFQYGQHTVTLETGMMARQATAAVMVSMDDTAVFVTVVGQKKAKPGQDFFPLTVNYQERTYAAGRIPGSFFRREGRPSEGETLIARLIDRPIRPLFPEGFVNEVQVIATVVSVNPQVNPDIVAMIGASAALSLSGIPFNGPIGAARVGYINDQYVLNPTQDELKESKLDLVVAGTEAAVLMVESEAQLLSEDQMLGAVVFGHEQQQVVIQNINELVKEAGKPRWDWQPEPVNEALNARVAALAEARLSDAYRITDKQERYAQVDVIKSETIATLLAEDETLDENELGEILHAIEKNVVRSRVLAGEPRIDGREKDMIRGLDVRTGVLPRTHGSALFTRGETQALVTATLGTARDAQVLDELMGERTDTFLFHYNFPPYSVGETGMVGSPKRREIGHGRLAKRGVLAVMPDMDKFPYTVRVVSEITESNGSSSMASVCGASLALMDAGVPIKAAVAGIAMGLVKEGDNYVVLSDILGDEDHLGDMDFKVAGSRDGISALQMDIKIEGITKEIMQVALNQAKGARLHILGVMEQAINAPRGDIS
notes: Expression vector from George Mackie; No tag is mentioned; also called PNPase core; PNPase ΔKΔH1; source: E. coli BL21 (DE3), auto-induction, purified (ammonium sulphate, Q-Sepharose, mono-Q)
B2: RNase E recognition micro-domain (residues 1021-1061) (peptide, UniProt P21513 1021-1061, looked up)
peptide: EAPRHSDWQRPTFAFEGKGAAGGHTATHHASAAPARPQPVE
notes: also called RNase E micro-domain; source: synthetic peptide (Clonestar Biotech Ltd), desalted on PD10

In series [1] the target is B2. Kind of series: ITC; MicroCal VP-ITC, 25 °C; 200 uM PNPase core injected into 10 uM RNase E micro-domain in the cell; 10 mM Tris pH 7.5, 150 mM NaCl, 1 mM MgCl2; single binding-site model. The settings on record: both partners purified. Background: ITC needs no label: the signal is the heat of the interaction.
Series [2] concerns the molecule itself. Kind of series: crystal structure; co-crystals of 165 uM PNPase core mixed with 246 uM RNase E micro-domain (1021-1061), with or without O2'-methyl RNA, Mn2+ or tungstate; four crystal forms; hanging drop, 20 °C.
Series [3] addresses B1. As to the kind of experiment: ITC; MicroCal VP-ITC, 25 °C; 200 uM PNPase core injected into 10 uM RNase E micro-domain in the cell; 10 mM Tris pH 7.5, 150 mM NaCl, 1 mM MgCl2; single binding-site model. The settings on record: both partners purified.

B1: the dH in series [1] is -21.5 ± 0.52 kcal/mol. Also, the “stoichiometry N” value in series [1] came out at 1.02 ± 0.02; in series [2], 3.
On to B2, for which, in series [3], the Ka was 956000 M⁻¹ and the Kd was ~900 nM.

The values are drawn from paper PMC2723993, “Crystal Structure of Escherichia coli Polynucleotide Phosphorylase Core Bound to RNase E, RNA and Manganese: Implications for Catalytic Mechanism and RNA Degradosome Assembly” (Journal of Molecular Biology, 2009).
